Test results published in patent publication US20180066058A1 (published 2018).

T1: Human ICOS extracellular domain fused to human Fc (human, UniProt Q9Y6W8 21-140)
T1 construct: Dimeric protein made in house from NCBI NP_036224.1; also called hICOS; hICOS Fc; not shown: human Fc region
T1 sequence: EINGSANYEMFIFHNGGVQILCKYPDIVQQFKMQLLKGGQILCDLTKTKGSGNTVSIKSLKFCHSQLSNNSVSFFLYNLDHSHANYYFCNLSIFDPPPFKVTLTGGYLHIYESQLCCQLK

T2: Human ICOS on cells (human, UniProt Q9Y6W8 21-199)
T2 sequence: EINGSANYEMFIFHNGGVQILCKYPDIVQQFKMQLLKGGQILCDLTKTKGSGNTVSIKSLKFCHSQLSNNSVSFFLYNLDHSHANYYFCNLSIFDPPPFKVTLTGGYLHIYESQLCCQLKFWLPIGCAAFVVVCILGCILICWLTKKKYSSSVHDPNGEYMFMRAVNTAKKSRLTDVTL

T3: Cynomolgus ICOS on activated cynomolgus T cells (cynomolgus, UniProt Q9Y6W8 21-195 (human entry))
T3 construct: also called NHP ICOS
T3 chain: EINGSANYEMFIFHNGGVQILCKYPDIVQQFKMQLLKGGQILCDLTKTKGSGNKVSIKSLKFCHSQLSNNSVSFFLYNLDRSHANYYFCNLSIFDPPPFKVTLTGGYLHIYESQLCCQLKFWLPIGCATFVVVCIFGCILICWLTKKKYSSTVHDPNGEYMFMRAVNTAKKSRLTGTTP

T4: human ICOS-mFc (Chimerigen) (human, UniProt Q9Y6W8 21-140)
T4 construct: also called human ICOS receptor; human ICOS Receptor; not shown: mouse Fc of the bought construct
T4 sequence: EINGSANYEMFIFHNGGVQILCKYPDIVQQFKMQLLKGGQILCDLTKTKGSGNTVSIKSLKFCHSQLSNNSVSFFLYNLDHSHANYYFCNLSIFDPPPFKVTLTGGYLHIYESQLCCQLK

T5: mouse ICOS-mFc (Chimerigen) (mouse, UniProt Q9WVS0 21-141, limits assumed)
T5 construct: also called mouse ICOS receptor; mouse ICOS Receptor; not shown: mouse Fc of the bought construct
T5 sequence: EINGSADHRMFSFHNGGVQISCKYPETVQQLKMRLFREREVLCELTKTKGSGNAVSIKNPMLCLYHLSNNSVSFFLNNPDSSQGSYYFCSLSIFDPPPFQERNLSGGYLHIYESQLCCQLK

T6: Mouse ICOS extracellular domain fused to human Fc (mouse, UniProt Q9WVS0 21-141)
T6 construct: Made in house from NCBI NP_059508.2; also called mICOS; mICOS Fc; not shown: human Fc region
T6 sequence: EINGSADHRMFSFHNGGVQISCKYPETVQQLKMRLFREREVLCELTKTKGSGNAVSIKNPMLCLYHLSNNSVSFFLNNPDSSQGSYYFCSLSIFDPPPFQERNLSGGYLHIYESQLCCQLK


How the values were obtained:
[1] = target: T1, Human ICOS extracellular domain fused …; assay: SPR (ProteOn XPR36), Fc-tagged ICOS captured on anti-human IgG, Fab analyte, 25 C
Experimental: (§1) Fab affinities of the ICOS leads were generated by SPR using the ProteOn XPR3 6 (BioRad). An anti-human IgG capture surface was created on a GLC biosensor chip by primary amine coupling, immobilising three anti-human IgG antibodies (Jackson Labs 109-005-008, 109-006-008 and 309-006-008). […] Binding sensorgrams were double referenced using a buffer injection (i.e. 0 nM), and the data was fitted to the 1:1 model inherent to the ProteOn XPR36 analysis software. The assay was run at 25° C. and using HBS-EP as running buffer.

[2] = target: T1, Human ICOS extracellular domain fused …; assay: SPR (ProteOn XPR36), human ICOS ECD-Fc captured, Fab analyte, pH 5.5, 37 C; poor fit to 1:1 model
Experimental: (§2) In addition, a comparison was performed of antibody:antigen binding affinity at different pH values. As before, the dimeric human ICOS protein, presented as the extracellular domain of ICOS fused to a human Fc region, was captured on the anti-human Fc capture surface created using the 3 antibody cocktail, immobilised on the GLC biosensor chip by primary amine coupling. SPR analysis of recombinantly expressed anti-ICOS Fabs was carried out on the ProteOn XPR36 Array system (Biorad). The Fab fragments were used as analyte to generate binding sensorgrams, which were double referenced with a buffer injection (i.e., 0 nM). The subsequent referenced sensorgrams were fitted to the 1:1 model inherent to the ProteOn analysis software. […] Data were fitted to the 1:1 model.

[3] = target: T1, Human ICOS extracellular domain fused …; assay: SPR (ProteOn XPR36), human ICOS ECD-Fc captured, Fab analyte, pH 7.4, 37 C; poor fit to 1:1 model
Experimental: as §2

[4] = target: T2, Human ICOS on cells; assay: cell-based or functional assay
[5] = target: T2, Human ICOS on cells; assay: cell-based or functional assay; remark: listed apart in the source
[6] = target: T2, Human ICOS on cells; assay: flow cytometry on activated human pan T cells (row Human), first donor column
[7] = target: T2, Human ICOS on cells; assay: flow cytometry on activated human pan T cells (row Human), second donor column
[8] = target: T3, Cynomolgus ICOS on activated cynomolgus …; assay: flow cytometry, AF647 pre-labelled hIgG1 on activated cynomolgus pan T cells, donor 1
Experimental: (§3) PBMC from whole blood of 2 Mauritian cynomolgus macaques (Wickham Laboratories) were isolated by gradient centrifugation and cultured for 3 days with CD2/CD3/CD28 MACSiBeads (Miltenyi) to induce ICOS expression on their surface. […] Cells were also labelled with V450-CD3 to assess staining on T-cell subsets. Stained cells were run on Attune (Thermofisher) and staining intensity was presented as mean fluorescence intensity (MFI). EC50 was determined using GraphPad Prism.

[9] = target: T3, Cynomolgus ICOS on activated cynomolgus …; assay: flow cytometry, AF647 pre-labelled hIgG1 on activated cynomolgus pan T cells, donor 2
Experimental: as §3

[10] = target: T4, human ICOS-mFc (Chimerigen); assay: HTRF neutralisation of Alexa 647 human B7-H2 binding to human ICOS-mFc; human IgG1; mean, n = 4
Experimental: (§4) 5 μl of ICOS receptor (human ICOS-mFc, 20 nM, 5 nM final or mouse ICOS-mFc 4 nM, 1 nM final (Chimerigen)) was added to required wells. Plate was incubated for 1 hr at room temperature (RT).
(§5) Finally, 5 μl of anti-mouse IgG donor mAb (Southern Biotech) labelled with europium cryptate (Cis Bio), 40 nM, 10 nM final was added to each well and the assay was left in the dark at RT to incubate for a further 2 hours. After incubation, assay was read on Envision plate reader (Perkin Elmer) using a standard HTRF protocol. […] Titration curves and IC50 values [M] were plotted using Graphpad (Prism). IC50 values were calculated by first transforming the data using equation X=Log(X). The transformed data was then fitted using nonlinear regression, using fitting algorithm, log (inhibitor) vs. response—variable slope (four parameters).

[11] = target: T5, mouse ICOS-mFc (Chimerigen); assay: HTRF neutralisation of Alexa 647 mouse B7-H2 binding to mouse ICOS-mFc; human IgG1; mean, n = 3
Experimental: as §4, §5

[12] = target: T2, Human ICOS on cells; assay: flow cytometry on activated primary human pan T cells; indirect binding assay; reference STIM001 hIgG1
Experimental: (§6) Pan T-cells (CD3 cells) were isolated and cultured for 3 days with CD3/CD28 dynabeads (Thermofisher) to induce ICOS expression on their surface. […] Stained cells were ran on the Attune and staining intensity was presented as Mean of fluorescence intensity (MFI). EC50 was determined using GraphPad Prism.

[13] = target: T2, Human ICOS on cells; assay: flow cytometry on activated primary human pan T cells; naked hIgG1 detected with AF647 goat anti-human Fc
Experimental: as §6

[14] = target: T1, Human ICOS extracellular domain fused …; assay: SPR (ProteOn XPR36), human ICOS ECD-Fc captured, Fab analyte, pH 5.5, 37 C
Experimental: as §2

[15] = target: T1, Human ICOS extracellular domain fused …; assay: SPR (ProteOn XPR36), human ICOS ECD-Fc captured, Fab analyte, pH 7.4, 37 C
Experimental: as §2

[16] = target: T1, Human ICOS extracellular domain fused …; assay: SPR (ProteOn XPR36), human ICOS ECD-Fc captured, Fab analyte, pH 7.6, 25 C
[17] = target: T1, Human ICOS extracellular domain fused …; assay: SPR (ProteOn XPR36), human ICOS ECD-Fc captured, Fab analyte, pH 7.6, 37 C
Experimental: as §2

[18] = target: T6, Mouse ICOS extracellular domain fused …; assay: SPR (ProteOn XPR36), Fc-tagged ICOS captured on anti-human IgG, Fab analyte, 25 C
Experimental: as §1

[19] = target: T1, Human ICOS extracellular domain fused …; assay: SPR (ProteOn XPR36), human ICOS ECD-Fc captured, Fab analyte, pH 5.5, 37 C (second run)
Experimental: as §2

[20] = target: T2, Human ICOS on cells; assay: cell-based or functional assay; remark: listed apart in the source

Binder	Kd [1] [nM]	EC50 (Molar unit), NK primary cell ADCC assay on MJ cells, 2 hour time point, Donor 1 [4] [nM]	EC50 (Molar unit), NK primary cell ADCC assay on MJ cells, 2 hour time point, Donor 2 [4] [nM]	EC50 (Molar unit), NK primary cell ADCC assay on MJ cells, 2 hour time point, Donor 3 [4] [nM]	EC50 (Molar unit), NK primary cell ADCC assay on ICOS-transfected CCRF-CEM cells, 4 hour time point, Donor 4 [5] [nM]	EC50 (Molar unit), NK primary cell ADCC assay on ICOS-transfected CCRF-CEM cells, 4 hour time point, Donor 5 [5] [nM]	EC50 (Molar unit), NK primary cell ADCC assay on ICOS-transfected CCRF-CEM cells, 4 hour time point, Donor 6 [5] [nM]	EC50 [6] [nM]	EC50 [7] [nM]	EC50 [8] [nM]	IC50 [10] [nM]	IC50 [11] [nM]	EC50 [13] [nM]	Kd [14] [nM]	Kd [15] [nM]	Kd [16] [nM]	Kd [17] [nM]	Kd [18] [nM]	Kd [19] [nM]	other results
STIM002 Fab (Fab, V domains shown, Recombinantly expressed purified Fab) VH: QVQLVQSGGEVKKPGASVKVSCKASGYTFTSYGFSWVRQAPGQGLEWMGWISAYNGNTNYAQKLQGRVTMTTDTSTSTAYMELRSLRSDDTAVYYCARSTYFYGSGTLYGMDVWGQGTTVTVSS VL: DIVMTQSPLSLPVTPGEPASISCRSSQSLLHSDGYNYLDWYLQKPGQSPQLLIYLGSTRASGFPDRFSGSGSGTDFTLKISRVEAEDVGVYYCMQALQTPLSFGQGTKLEIK	1070																			Kd [2]: 4.17 nM; Kd [3]: 223 nM
STIM003 human IgG1 (antibody, V domains shown, Human IgG1 format; Conjugated with AF647 in the direct staining assays, coupled to beads or plates in the MJ cell assays; also called STIM003 (hIgG1); STIM003 hIgG1) VH: EVQLVESGGGVVRPGGSLRLSCVASGVTFDDYGMSWVRQAPGKGLEWVSGINWNGGDTDYSDSVKGRFTISRDNAKNSLYLQMNSLRAEDTALYYCARDFYGSGSYYHVPFDYWGQGILVTVSS VL: EIVLTQSPGTLSLSPGERATLSCRASQSVSRSYLAWYQQKRGQAPRLLIYGASSRATGIPDRFSGDGSGTDFTLSISRLEPEDFAVYYCHQYDMSPFTFGPGTKVDIKR		0.00233	0.0358	0.101	~0.003	0.000895	0.00103	2.29	0.895	4.58	1.3	0.1	0.148							EC50 [9]: 4.83 nM; fold lower EC50 than STIM001 [12]: ~100 fold
STIM003 Fab (Fab, V domains shown, Recombinantly expressed purified Fab) VH: EVQLVESGGGVVRPGGSLRLSCVASGVTFDDYGMSWVRQAPGKGLEWVSGINWNGGDTDYSDSVKGRFTISRDNAKNSLYLQMNSLRAEDTALYYCARDFYGSGSYYHVPFDYWGQGILVTVSS VL: EIVLTQSPGTLSLSPGERATLSCRASQSVSRSYLAWYQQKRGQAPRLLIYGASSRATGIPDRFSGDGSGTDFTLSISRLEPEDFAVYYCHQYDMSPFTFGPGTKVDIK	1.3													1.02	1.71	1.31	1.98	0.4	1.15	
STIM001 human IgG1 (antibody, V domains shown, Human IgG1 format; Conjugated with AF647 in the direct staining assays, coupled to beads or plates in the MJ cell assays; also called STIM001 (hIgG1); STIM001 hIgG1) VH: QVQVVQSGAEVKKPGASVKVSCKASGYTFSTFGITWVRQAPGQGLEWMGWISAYNGDTNYAQNLQGRVIMTTDTSTSTAYMELRSLRSDDTAVYYCARSSGHYYYYGMDVWGQGTTVTVSS VL: DIVMTQSPLSLPVTPGEPASISCRSSQSLLHSNEYNYLDWYLQKPGQSPQLLIFLGSNRASGVPDRFSGSGSGTDFTLKITRVEAEDVGIYYCMQSLQTPLTFGGGTKVEIKR		0.121	0.529	2.92	0.00392	0.00395	0.00375	221	121	222	2.2	6.5	17							EC50 (Molar unit), NK primary cells ADCC assay on MJ cells, 2 hour time point, Donor 1 [20]: 0.121 nM; EC50 (Molar unit), NK primary cells ADCC assay on MJ cells, 2 hour time point, Donor 2 [20]: 0.529 nM
STIM001 Fab (Fab, V domains shown, Recombinantly expressed purified Fab) VH: QVQVVQSGAEVKKPGASVKVSCKASGYTFSTFGITWVRQAPGQGLEWMGWISAYNGDTNYAQNLQGRVIMTTDTSTSTAYMELRSLRSDDTAVYYCARSSGHYYYYGMDVWGQGTTVTVSS VL: DIVMTQSPLSLPVTPGEPASISCRSSQSLLHSNEYNYLDWYLQKPGQSPQLLIFLGSNRASGVPDRFSGSGSGTDFTLKITRVEAEDVGIYYCMQSLQTPLTFGGGTKVEIK	44													73.1	63.5	44	42.6	407	80.3	
